Assay results as given in the supplement of paper PMC5998384.

Key:
HeLa Kyoto [1] = experiment: thermal stability score vs G1/S (z-score of summed log2 fold changes over temperatures); higher = more thermally stable than in G1/S
HeLa Kyoto [2] = experiment: melting temperature (median over replicates), in situ; higher = more thermally stable
HeLa Kyoto [3] = experiment: solubility change mitosis vs G1/S (difference of NP-40 vs SDS log2 ratios) (log2 ratio difference); higher = more soluble in mitosis
HeLa Kyoto [4] = experiment: solubility in G1/S (NP-40 vs SDS abundance) (log2 ratio); higher = more soluble; details: cell cycle stage: G1/S
[5] = cell cycle stage: early G1 (4.5 h after nocodazole release)
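Throughout, for melting temperature (median over replicates), in situ: HeLa Kyoto cells synchronized by double thymidine or nocodazole block, proteins quantified by TMT10plex mass spectrometry, three independent biological replicates.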
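Throughout, for solubility change mitosis vs G1/S (difference of NP-40 vs SDS log2 ratios): synchronized HeLa Kyoto cells (double thymidine block for G1/S, nocodazole release for mitosis), protein amounts in NP-40 versus SDS lysates quantified by mass spectrometry, three biological replicates.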
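Throughout, for solubility in G1/S (NP-40 vs SDS abundance): HeLa Kyoto cells arrested at G1/S by double thymidine block, proteins quantified by TMT10plex mass spectrometry in mild NP-40 versus SDS extracts, three biological replicates.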
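Throughout, for thermal stability score vs G1/S (z-score of summed log2 fold changes over temperatures): synchronized HeLa Kyoto cells, proteins quantified by TMT10plex mass spectrometry, three biological replicates, mitosis taken 0.5 h after nocodazole release, G1/S directly after double thymidine block.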

Sequence of HNRNPU (chain, as listed by the source): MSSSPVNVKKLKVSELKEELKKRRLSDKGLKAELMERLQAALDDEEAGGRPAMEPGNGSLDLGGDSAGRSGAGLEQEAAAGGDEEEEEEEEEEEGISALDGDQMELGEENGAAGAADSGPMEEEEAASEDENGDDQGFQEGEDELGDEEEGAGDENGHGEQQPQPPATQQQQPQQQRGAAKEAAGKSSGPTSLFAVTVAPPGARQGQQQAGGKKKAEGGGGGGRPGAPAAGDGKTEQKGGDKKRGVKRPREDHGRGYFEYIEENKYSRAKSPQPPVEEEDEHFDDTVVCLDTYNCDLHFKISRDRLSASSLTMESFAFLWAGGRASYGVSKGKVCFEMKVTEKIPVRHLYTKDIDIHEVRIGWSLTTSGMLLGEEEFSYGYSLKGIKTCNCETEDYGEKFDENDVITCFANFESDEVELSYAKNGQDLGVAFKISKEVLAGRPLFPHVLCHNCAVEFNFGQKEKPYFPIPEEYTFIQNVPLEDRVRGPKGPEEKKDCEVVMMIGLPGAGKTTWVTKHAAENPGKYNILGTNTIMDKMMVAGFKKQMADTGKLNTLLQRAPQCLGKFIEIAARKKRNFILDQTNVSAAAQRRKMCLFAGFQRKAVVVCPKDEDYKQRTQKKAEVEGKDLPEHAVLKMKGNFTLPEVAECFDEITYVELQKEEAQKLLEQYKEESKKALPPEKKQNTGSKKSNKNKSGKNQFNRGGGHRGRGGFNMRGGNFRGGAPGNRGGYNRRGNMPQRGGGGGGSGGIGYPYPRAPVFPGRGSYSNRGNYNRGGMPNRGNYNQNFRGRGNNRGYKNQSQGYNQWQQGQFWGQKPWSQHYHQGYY

| Substance | thermal stability score (HeLa Kyoto [1]; [5]) | thermal stability score (HeLa Kyoto [1]; cell cycle stage: mitosis) | melting temperature (HeLa Kyoto [2]; cell cycle stage: G1/S) | melting temperature (HeLa Kyoto [2]; cell cycle stage: mitosis) | solubility change mitosis (log2) (HeLa Kyoto [3]) | solubility in G1/S (log2) (HeLa Kyoto [4]) |
| --- | --- | --- | --- | --- | --- | --- |
| MSGDHLHNDSQIEADFRLNDSHKHKDKHKDREHRHKEHKKEKDREKSKHSNSEHKDSEKKHKEKEKTKHKDGSSEKHKDKHKDRDKEKRKEEKVRASGDAKIKKEKENGFSSPPQIKDEPEDDGYFVPPKEDIKPLKRPRDEDDADYKPKKIKTEDTKKEKKRKLEEEEDGKLKKPKNKDKDKKVPEPDNKKKKPKKEEEQKWKWWEEERYPEGIKWKFLEHKGPVFAPPYEPLPENVKFYYDGKVMKLSPKAEEVATFFAKMLDHEYTTKEIFRKNFFKDWRKEMTNEEKNIITNLSKCDFTQMSQYFKAQTEARKQMSKEEKLKIKEENEKLLKEYGFCIMDNHKERIANFKIEPPGLFRGRGNHPKMGMLKRRIMPEDIIINCSKDAKVPSPPPGHKWKEVRHDNKVTWLVSWTENIQGSIKYIMLNPSSRIKGEKDWQKYETARRLKKCVDKIRNQYREDWKSKEMKVRQRAVALYFIDKLALRAGNEKEEGETADTVGCCSLRVEHINLHPELDGQEYVVEFDFLGKDSIRYYNKVPVEKRVFKNLQLFMENKQPEDDLFDRLNTGILNKHLQDLMEGLTAKVFRTYNASITLQQQLKELTAPDENIPAKILSYNRANRAVAILCNHQRAPPKTFEKSMMNLQTKIDAKKEQLADARRDLKSAKADAKVMKDAKTKKVVESKKKAVQRLEEQLMKLEVQATDREENKQIALGTSKLNYLDPRITVAWCKKWGVPIEKIYNKTQREKFAWAIDMADEDYEF [TOP1] | 7.82 | 12 | 46.9 °C | 49.1 °C | 0.531 | -1.22 |
| MSDKLPYKVADIGLAAWGRKALDIAENEMPGLMRMRERYSASKPLKGARIAGCLHMTVETAVLIETLVTLGAEVQWSSCNIFSTQDHAAAAIAKAGIPVYAWKGETDEEYLWCIEQTLYFKDGPLNMILDDGGDLTNLIHTKYPQLLPGIRGISEETTTGVHNLYKMMANGILKVPAINVNDSVTKSKFDNLYGCRESLIDGIKRATDVMIAGKVAVVAGYGDVGKGCAQALRGFGARVIITEIDPINALQAAMEGYEVTTMDEACQEGNIFVTTTGCIDIILGRHFEQMKDDAIVCNIGHFDVEIDVKWLNENAVEKVNIKPQVDRYRLKNGRRIILLAEGRLVNLGCAMGHPSFVMSNSFTNQVMAQIELWTHPDKYPVGVHFLPKKLDEAVAEAHLGKLNVKLTKLTEKQAQYLGMSCDGPFKPDHYRY [AHCY] | -2.93 | -2.39 | 58.9 °C | 59.3 °C | -0.0568 | 0.0748 |
| MDWVMKHNGPNDASDGTVRLRGLPFGCSKEEIVQFFQGLEIVPNGITLTMDYQGRSTGEAFVQFASKEIAENALGKHKERIGHRYIEIFRSSRSEIKGFYDPPRRLLGQRPGPYDRPIGGRGGYYGAGRGSMYDRMRRGGDGYDGGYGGFDDYGGYNNYGYGNDGFDDRMRDGRGMGGHGYGGAGDASSGFHGGHFVHMRGLPFRATENDIANFFSPLNPIRVHIDIGADGRATGEADVEFVTHEDAVAAMSKDKNNMQHRYIELFLNSTPGGGSGMGGSGMGGYGRDGMDNQGGYGSVGRMGMGNNYSGGYGTPDGLGGYGRGGGGSGGYYGQGGMSGGGWRGMY [HNRNPH3] | 3.81 | 9.58 | 45.4 °C | 47.7 °C | 0.282 | -0.0906 |
| GAPDH | -2.02 | -3.87 | 59.5 °C | 60.3 °C | -0.0817 | 0.191 |
| MTKKRKRQHDFQKVKLKVGKKKPKLQNATPTNFKTKTIHLPEQLKEDGTLPTNNRKLNIKDLLSQMHHYNAGVKQSALLGLKDLLSQYPFIIDAHLSNILSEVTAVFTDKDANVRLAAVQLLQFLAPKIRAEQISPFFPLVSAHLSSAMTHITEGIQEDSLKVLDILLEQYPALITGRSSILLKNFVELISHQQLSKGLINRDRSQSWILSVNPNRRLTSQQWRLKVLVRLSKFLQALADGSSRLRESEGLQEQKENPHATSNSIFINWKEHANDQQHIQVYENGGSQPNVSSQFRLRYLVGGLSGVDEGLSSTENLKGFIEIIIPLLIECWVEAVPPQLATPVGNGIEREPLQVMQQVLNIISLLWKLSKQQDETHKLESWLRKNYLIDFKHHFMSRFPYVLKEITKHKRKEPNKSIKHCTVLSNNIDHLLLNLTLSDIMVSLANASTLQKDCSWIEMIRKFVTETLEDGSRLNSKQLNRLLGVSWRLMQIQPNREDTETLIKAVYTLYQQRGLILPVRTLLLKFFSKIYQTEELRSCRFRYRSKVLSRWLAGLPLQLAHLGSRNPELSTQLIDIIHTAAARANKELLKSLQATALRIYDPQEGAVVVLPADSQQRLVQLVYFLPSLPADLLSRLSRCCIMGRLSSSLAAMLIGILHMRSSFSGWKYSAKDWLMSDVDYFSFLFSTLTGFSKEELTWLQSLRGVPHVIQTQLSPVLLYLTDLDQFLHHWDVTEAVFHSLLVIPARSQNFDILQSAISKHLVGLTVIPDSTAGCVFGVICKLLDHTCVVSETLLPFLASCCYSLLYFLLTIEKGEAEHLRKRDKLWGVCVSILALLPRVLRLMLQSLRVNRVGPEELPVVGQLLRLLLQHAPLRTHMLTNAILVQQIIKNITTLKSGSVQEQWLTDLHYCFNVYITGHPQGPSALATVY [TEX10] | -1.74 | -4.37 | 54.3 °C | 52 °C | 0.921 | -1.92 |
| MTQQPLRGVTSLRFNQDQSCFCCAMETGVRIYNVEPLMEKGHLDHEQVGSMGLVEMLHRSNLLALVGGGSSPKFSEISVLIWDDAREGKDSKEKLVLEFTFTKPVLSVRMRHDKIVIVLKNRIYVYSFPDNPRKLFEFDTRDNPKGLCDLCPSLEKQLLVFPGHKCGSLQLVDLASTKPGTSSAPFTINAHQSDIACVSLNQPGTVVASASQKGTLIRLFDTQSKEKLVELRRGTDPATLYCINFSHDSSFLCASSDKGTVHIFALKDTRLNRRSALARVGKVGPMIGQYVDSQWSLASFTVPAESACICAFGRNTSKNVNSVIAICVDGTFHKYVFTPDGNCNREAFDVYLDICDDDDF [WDR45] | -0.724 | -0.704 | 53.4 °C | 53.6 °C | -0.0635 | -0.26 |
| MGHPPLLPLLLLLHTCVPASWGLRCMQCKTNGDCRVEECALGQDLCRTTIVRLWEEGEELELVEKSCTHSEKTNRTLSYRTGLKITSLTEVVCGLDLCNQGNSGRAVTYSRSRYLECISCGSSDMSCERGRHQSLQCRSPEEQCLDVVTHWIQEGEEGRPKDDRHLRGCGYLPGCPGSNGFHNNDTFHFLKCCNTTKCNEGPILELENLPQNGRQCYSCKGNSTHGCSSEETFLIDCRGPMNQCLVATGTHEPKNQSYMVRGCATASMCQHAHLGDAFSMNHIDVSCCTKSGCNHPDLDVQYRSGAAPQPGPAHLSLTITLLMTARLWGGTLLWT [PLAUR] | 0.197 | 4.92 | 52.8 °C | 56.2 °C | -0.232 | 0.19 |
| MKMKLFQTICRQLRSSKFSVESAALVAFSTSSYSCGRKKKVNPYEEVDQEKYSNLVQSVLSSRGVAQTPGSVEEDALLCGPVSKHKLPNQGEDRRVPQNWFPIFNPERSDKPNASDPSVPLKIPLQRNVIPSVTRVLQQTMTKQQVFLLERWKQRMILELGEDGFKEYTSNVFLQGKRFHEALESILSPQETLKERDENLLKSGYIESVQHILKDVSGVRALESAVQHETLNYIGLLDCVAEYQGKLCVIDWKTSEKPKPFIQSTFDNPLQVVAYMGAMNHDTNYSFQVQCGLIVVAYKDGSPAHPHFMDAELCSQYWTKWLLRLEEYTEKKKNQNIQKPEYSE [MGME1] | -0.736 | -1.05 | 52.9 °C | 53.5 °C | 0.0664 | 0.384 |
| HNRNPU | 7.74 | 17.8 | 47.1 °C | 49.5 °C | 0.232 | -0.381 |
| MMP15 | -0.0989 | -0.65 | 54.4 °C | 55.3 °C | -0.0164 | -0.181 |
| MALNKNHSEGGGVIVNNTESILMSYDHVELTFNDMKNVPEAFKGTKKGTVYLTPYRVIFLSKGKDAMQSFMMPFYLMKDCEIKQPVFGANYIKGTVKAEAGGGWEGSASYKLTFTAGGAIEFGQRMLQVASQASRGEVPSGAYGYSYMPSGAYVYPPPVANGMYPCPPGYPYPPPPPEFYPGPPMMDGAMGYVQPPPPPYPGPMEPPVSGPDVPSTPAAEAKAAEAAASAYYNPGNPHNVYMPTSQPPPPPYYPPEDKKTQ [WBP2] | 0.182 | -1.41 | 54.1 °C | 54.5 °C | -0.0665 | 0.283 |
| MATSVLCCLRCCRDGGTGHIPLKEMPAVQLDTQHMGTDVVIVKNGRRICGTGGCLASAPLHQNKSYFEFKIQSTGIWGIGVATQKVNLNQIPLGRDMHSLVMRNDGALYHNNEEKNRLPANSLPQEGDVVGITYDHVELNVYLNGKNMHCPASGIRGTVYPVVYVDDSAILDCQFSEFYHTPPPGFEKILFEQQIF [SPRYD7] | 0.0977 | -1.67 | 52.6 °C | 54.2 °C | -0.19 | 0.156 |
